According to patent US20240124586A1 (WUXI BIOLOGICS IRELAND, published 2024):

T1: FcγRIIa (H167) (UniProt P12318 36-218, limits assumed)
T1 sequence (looked up): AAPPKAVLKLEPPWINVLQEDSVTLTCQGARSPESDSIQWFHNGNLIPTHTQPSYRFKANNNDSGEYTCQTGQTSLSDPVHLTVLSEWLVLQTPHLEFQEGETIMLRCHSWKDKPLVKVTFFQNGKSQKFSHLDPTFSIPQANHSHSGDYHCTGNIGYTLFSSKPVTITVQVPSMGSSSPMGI

T2: FcγRIIa (R167) (UniProt P12318 36-218, limits assumed)
T2 sequence (looked up): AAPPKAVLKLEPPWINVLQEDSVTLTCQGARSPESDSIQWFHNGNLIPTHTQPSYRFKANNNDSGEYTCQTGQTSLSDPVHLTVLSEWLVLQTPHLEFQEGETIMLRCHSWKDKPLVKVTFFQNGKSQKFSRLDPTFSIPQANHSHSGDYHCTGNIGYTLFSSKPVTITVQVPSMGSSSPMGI

T3: FcγRIIb (UniProt P31994 46-217, limits assumed)
T3 sequence (looked up): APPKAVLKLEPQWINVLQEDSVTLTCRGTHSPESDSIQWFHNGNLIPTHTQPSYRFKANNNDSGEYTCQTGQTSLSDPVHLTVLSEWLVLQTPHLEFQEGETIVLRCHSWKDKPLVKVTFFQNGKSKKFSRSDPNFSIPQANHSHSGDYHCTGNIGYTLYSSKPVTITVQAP


Legend:
[1] = biological target: T4, human PD-1 on engineered CHO-S cells (W305-CHO-S.hPro1.C6) (human, UniProt Q15116 25-288); assay: FACS on human PD-1 engineered cells
T4 construct: whole, on cells; also called human PD-1 engineered cells; PD-1+ cells
T4 sequence (Q15116 25-288, change not shown): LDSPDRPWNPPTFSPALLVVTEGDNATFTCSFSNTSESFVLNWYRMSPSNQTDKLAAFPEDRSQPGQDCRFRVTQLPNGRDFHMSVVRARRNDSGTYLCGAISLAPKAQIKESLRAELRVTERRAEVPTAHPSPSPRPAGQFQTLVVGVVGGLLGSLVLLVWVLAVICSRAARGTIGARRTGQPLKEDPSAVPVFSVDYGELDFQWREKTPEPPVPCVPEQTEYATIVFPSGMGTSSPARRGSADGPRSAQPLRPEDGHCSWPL
Experimental: Engineered human PD-1 expressing cells W305-CHO-S.hPro1.C6 were seeded at 1×10⁵ cells/well in U-bottom 96-well plates (COSTAR 3799). Antibodies with 3.16-fold titration in 1% BSA DPBS from 200 nM to 0.002 nM were added to the cells. The plates were incubated at 4° C. for 1 hour. After wash, […] 1:125 diluted PE-labeled goat anti-human antibody (Jackson 109-115-098) was added to each well and the plates were incubated at 4° C. for 1 hour. The binding of the antibodies onto the cells was tested by flow cytometry and the mean fluorescence intensity (MFI) was analyzed by FlowJo.

[2] = biological target: T5, human CTLA-4 on engineered 293F cells (W316-293F.hPro1.FL) (human, UniProt P16410 36-223); assay: FACS on human CTLA-4 engineered cells
T5 construct: whole, on cells; also called human CTLA-4 engineered cells; CTLA-4+ cells
T5 sequence (P16410 36-223, change not shown): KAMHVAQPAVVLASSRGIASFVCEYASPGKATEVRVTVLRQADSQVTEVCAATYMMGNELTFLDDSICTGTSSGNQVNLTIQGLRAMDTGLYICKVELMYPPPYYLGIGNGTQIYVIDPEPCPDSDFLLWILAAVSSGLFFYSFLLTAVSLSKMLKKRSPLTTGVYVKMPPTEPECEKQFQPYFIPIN
Experimental: (§1) 3.16-fold titrated Abs with 1% BSA DPBS from 200 nM to 0.002 nM were added to the cells. Plates were incubated at 4° C. for 1 hour. After wash, […] 1:150 diluted PE-labeled goat anti-human antibody (Jackson 109-115-098) was added to each well and the plates were incubated at 4° C. for 1 hour. The binding of the antibodies onto the cells was tested by flow cytometry and the mean fluorescence intensity (MFI) was analyzed by FlowJo.

[3] = biological target: T5, human CTLA-4 on engineered 293F cells …; assay: FACS on human CTLA-4 engineered cells, against benchmark BMK1
Experimental: as §1

[4] = biological target: CTLA-4 (competition assays of Example 15) (UniProt P16410 36-161, limits assumed); assay: FACS competition: antibody titrated against CD80 binding to CTLA-4
Sequence of CTLA-4 (competition assays of Example 15) (P16410 36-161 limits assumed): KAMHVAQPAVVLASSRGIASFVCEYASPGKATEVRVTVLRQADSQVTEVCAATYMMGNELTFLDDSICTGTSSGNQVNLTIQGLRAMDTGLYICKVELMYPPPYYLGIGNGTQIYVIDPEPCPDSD

[5] = biological target: T4, human PD-1 on engineered CHO-S cells …; assay: FACS competition: antibody titrated against human PD-L1 binding to PD-1; falling curve, half-maximal value labelled EC50 on the sheet
Experimental: In order to test whether the bispecific antibodies could block hPD-L1 binding to hPD-1 protein, a competitive FACS was conducted. […] Plates were incubated at 4° C. for 1 hour. After wash, the binding of W315-hPro1.ECD.mFc to cell expressive human PD-1 was detected by FITC-labeled goat anti-mouse antibody (abcam 98716 1:125). The competition binding of antibodies to the cells was tested by flow cytometry and the mean fluorescence intensity (MFI) was analyzed by FlowJo.

[6] = biological target: T6, human PD-1 ECD mouse Fc fusion (W305-hPro1.ECD.mFc) (human, UniProt Q15116 25-170); assay: dual-binding ELISA: human PD-1 ECD coated, antibody titrated, bound antibody detected with biotinylated human CTLA-4 ECD and streptavidin-HRP
T6 construct: extracellular domain; In-house protein; also called hPD-1-ECD; human PD-1 coated on the plate
T6 sequence (Q15116 25-170): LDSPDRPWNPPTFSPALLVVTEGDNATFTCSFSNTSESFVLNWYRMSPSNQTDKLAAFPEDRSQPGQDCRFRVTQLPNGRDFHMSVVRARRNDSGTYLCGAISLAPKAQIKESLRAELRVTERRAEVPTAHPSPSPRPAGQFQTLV
Experimental: In order to test whether the bispecific antibodies could bind to both hPD-1 and hCTLA-4, an ELISA assay was developed as below. A 96-well ELISA plate (Nunc MaxiSorp, ThermoFisher) was coated overnight at 4° C. with 0.5 μg/ml antigen-1 (hPD-1-ECD, W305-hPro1.ECD.mFc) in carbonate-bicarbonate buffer. After a 1 hour blocking step with 2% (w/v) bovine serum albumin (Pierce) dissolved in PBS, serial dilutions of the different PD-1×CTLA-4 bispecific antibodies in PBS containing 2% BSA PBS were incubated on the plates for 1 hour at room temperature. Following the incubation, plates were washed three times with 300 μL per well of PBS containing 0.5% (v/v) Tween 20. […] After washing the plates three times, Streptavidin-HRP (Lifetechnologies, #SNN1004) (1:20000 diluted) was added and incubated on the plates for 1 hour at room temperature. After washing six times with […] per well of PBS containing 0.5% (v/v) Tween 20, 100 μL tetramethylbenzidine (TMB) substrate was added for the detection per well. The reaction was stopped after approximately 5 minutes through the addition of […] per well of 2 M HCl. The absorbance of the wells was measured at 450 nm with a multiwall plate reader (SpectraMax® M5e).

[7] = biological target: T7, FcγRI (UniProt P12314 16-288, limits assumed); assay: SPR (Biacore), receptor captured on anti-his chip, 1:1 model
T7 construct: His-tagged by the capture method
T7 sequence (P12314 16-288 limits assumed): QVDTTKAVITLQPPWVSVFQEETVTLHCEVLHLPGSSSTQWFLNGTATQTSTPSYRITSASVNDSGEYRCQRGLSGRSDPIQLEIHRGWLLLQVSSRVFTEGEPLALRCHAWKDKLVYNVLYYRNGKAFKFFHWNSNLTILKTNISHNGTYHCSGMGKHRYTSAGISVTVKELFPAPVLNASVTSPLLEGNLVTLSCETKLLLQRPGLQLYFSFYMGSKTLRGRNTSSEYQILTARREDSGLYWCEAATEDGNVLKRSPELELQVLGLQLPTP
Experimental: (§2) Antibody binding affinity to FcγRs was detected using Biacore T200 (or Biacore 8K). Each receptor was captured on an anti-his antibody immobilized CM5 sensor chip (GE). Antibodies at different concentrations were injected over the sensor chip at a flow rate of 30 uL/min for an association phase of 60 s, followed by 60 s dissociation. The chip was then regenerated by 10 mM glycine (pH 1.5) after each binding cycle.
(§3) The sensorgrams of blank surface and buffer channel were subtracted from the test sensorgrams. The experimental data was fitted by 1:1 model using Langmiur analysis (for FcγRI) or steady state model (for other receptors). Molecular weight of 150 KDa was used to calculate the molar concentration of antibodies.

[8] = biological target: T1, FcγRIIa (H167); assay: SPR (Biacore), receptor captured on anti-his chip, steady state model
Experimental: as §2, §3

[9] = biological target: T2, FcγRIIa (R167); assay: as above
Experimental: as §2, §3

[10] = biological target: T3, FcγRIIb; assay: as above
Experimental: as §2, §3

[11] = biological target: FcγRIIIa (F176) (UniProt P08637 17-208); assay: as above
Sequence of FcγRIIIa (F176) (P08637 17-208 limits assumed): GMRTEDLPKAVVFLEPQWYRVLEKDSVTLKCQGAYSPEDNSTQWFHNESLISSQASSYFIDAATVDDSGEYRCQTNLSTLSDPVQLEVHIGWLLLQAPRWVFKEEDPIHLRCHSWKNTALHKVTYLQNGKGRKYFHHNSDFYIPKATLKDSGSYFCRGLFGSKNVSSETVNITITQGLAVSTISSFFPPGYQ
Experimental: as §2, §3

[12] = biological target: FcγRIIIa (V176) (UniProt P08637 17-208); assay: as above
Sequence of FcγRIIIa (V176) (P08637 17-208 F176V limits assumed): as the sequence (P08637 17-208 limits assumed) above, with F160V counted along it
Experimental: as §2, §3

[13] = biological target: FcγRIIIb (UniProt O75015 17-200, limits assumed); assay: as above
Sequence of FcγRIIIb (O75015 17-200 limits assumed): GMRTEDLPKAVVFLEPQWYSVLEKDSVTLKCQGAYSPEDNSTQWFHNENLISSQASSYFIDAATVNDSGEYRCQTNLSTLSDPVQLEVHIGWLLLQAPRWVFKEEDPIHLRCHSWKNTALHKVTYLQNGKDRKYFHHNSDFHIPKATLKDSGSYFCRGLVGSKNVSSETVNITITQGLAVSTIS
Experimental: as §2, §3

EC50 [1] | EC50 [2] | fold improvement of EC50 against the benchmark antibody [3] | IC50 [4] | IC50 [5] | EC50 [6] | Kd [7] | Kd [8] | Kd [9] | Kd [10] | Kd [11] | Kd [12] | Kd [13] | Binder
1.32 nM | 7.55 nM | 1.6 fold | 0.758 nM | 1.92 nM | 0.071 nM | – | – | – | – | – | – | – | U6T5.G25.IgG4, bispecific anti-PD-1 x CTLA-4 (as listed in Example 15) (bispecific antibody, kept apart) heavy: not shown light 1: SYELTQPLSVSVALGQTARITCGGDNIGNKDVHWYQQKPGQAPVLVIYRDSNRPSGIPEGFSGSNSGNTATLTISRAQAGDEADYYCQVWDSIWVFGGGTKLTVLPDIQNPDPAVYQLRDSKSSDKSVCLFTDFDSQTQVSQSKDSDVYITDKCVLDMRSMDFKSNSAVAWSQKSDFACANAFQNSIIPEDTFFPSPESS light 2: EIVLTQSPDFQSVTPKEKVTITCSANSALSYMYWYQQKPDQSPKLWVHGTSNLASGVPSRFSGSGSGTDFTLTINSLEAEDAATYYCHHWSNTQWTFGGGTKVEIKRTVAAPSVFIFPPSDEQLKSGTASVVCLLNNFYPREAKVQWKVDNALQSGNSQESVTEQDSKDSTYSLSSTLTLSKADYEKHKVYACEVTHQGLSSPVTKSFNRGEC
– | – | – | – | – | – | 1.3 nM | 3580 nM | 4830 nM | 8070 nM | 2080 nM | 644 nM | 5160 nM | T3U4.E17-2.(2).uIgG1 (E17-Design_2-QQQQ in wild type IgG1 with knobs-into-holes) (bispecific antibody, Order T3-HC / T3-LC / U4-HC / U4-LC; copies: 1 + 1 + 1 + 1) heavy 1: not shown light 1: DIVMTQSPDSLAVSLGERATINCKSSQSLLNSRTRKNYLAWYQQKPGQPPKLLIYWASTRQSGVPDRFSGSGSGTDFTLTISSLQAEDVAVYYCTQSHTLRTFGGGTKVEIKPDIQNPDPAVYQLRDSKSSDKSVCLFTDFDSQTQVSQSKDSDVYITDKCVLDMRSMDFKSNSAVAWSQKSDFACANAFQNSIIPEDTFFPSPESS heavy 2: QMQLVQSGPEVKKPGTSVKVSCKASGYAFTSYNMYWVRQARGQRLEWIGYIDPYNGDTTYNQKFKGRVTITRDMSTSTAYMELSSLRSEDTAVYYCLTTAYAMDYWGQGTLVTVSSASTKGPSVFPLAPSSKSTSGGTAALGCLVKDYFPEPVTVSWNSGALTSGVHTFPAVLQSSGLYSLSSVVTVPSSSLGTQTYICNVNHKPSNTKVDKRVEPKSCDKTHTCPPCPAPELLGGPSVFLFPPKPKDTLMISRTPEVTCVVVDVSHEDPEVKFNWYVDGVEVHNAKTKPREEQYNSTYRVVSVLTVLHQDWLNGKEYKCKVSNKALPAPIEKTISKAKGQPREPQVCTLPPSREEMTKNQVSLSCAVKGFYPSDIAVEWESNGQPENNYKTTPPVLDSDGSFFLVSKLTVDKSRWQQGNVFSCSVMHEALHNHYTQKSLSLSPGK light 2: DIQLTQSPSFLSASVGDRVTITCSASSTVNYMHWYQQKPGKAPKLLIYSTSNLASGVPSRFSGSGSGTEFTLTISSLQPEDFATYYCHQWSSYPYTFGQGTKLEIKRTVAAPSVFIFPPSDEQLKSGTASVVCLLNNFYPREAKVQWKVDNALQSGNSQESVTEQDSKDSTYSLSSTLTLSKADYEKHKVYACEVTHQGLSSPVTKSFNRGEC
